Experimental data as given in IntAct's records for PubMed 19446522.

B1: "Na(+)/H(+) exchange regulatory cofactor NHE-RF1" (Homo sapiens), O14745 (parent)
chain: MSADAAAGAPLPRLCCLEKGPNGYGFHLHGEKGKLGQYIRLVEPGSPAEKAGLLAGDRLVEVNGENVEKETHQQVVSRIRAALNAVRLLVVDPETDEQLQKLGVQVREELLRAQEAPGQAEPPAAAEVQGAGNENEPREADKSHPEQRELRPRLCTMKKGPSGYGFNLHSDKSKPGQFIRSVDPDSPAEASGLRAQDRIVEVNGVCMEGKQHGDVVSAIRAGGDETKLLVVDRETDEFFKKCRVIPSQEHLNGPLPVPFTNGEIQKENSREALAEAALESPRPALVRSASSDTSEELNSQDSPPKQDSTAPSSTSSSDPILDFNISLAMAKERAHQKRSSKRAPQMDWSKKNELFSNL

Variants of: B1
Conditions: with CFTR

| Variant | effect of a mutation on the interaction |
| --- | --- |
| MSADAAAGAPLPRLCCLEKGPNGYGFHLHGEKGKLGQYIRLVEPGSPAEKAGLLAGDRLVEVNGENVEKETHQQVVSRIRAALNAVRLLVVDPETDEQLQKLGVQVREELLRAQEAPGQAEPPAAAEVQGAGNENEPREADKSHPEQRELRPRLCTMKKGPSGYGFNLHSDKSKPGQFIRSVDPDSPAEASGLRAQDRIVEVNGVCMEGKQHGDVVSAIRAGGDETKLLVVDRETDEFFKKCRVIPSQEHLNGPLPVPFTNGEIQKENSREALAEAALESPRPALVRSASSDTSEELNSQDSPPKQDSTAPSSTSSSDPILDFNISLAMAKERAHQKRSSKRAPQMDWSKKNALFSNL [E353A] | decreasing interaction |
